# Experiment: soluble on expression in E. coli; label from the status in PepcDB or PDB records
row,Sequence,soluble on expression in E. coli
1,MHIKPIIQGVVARSAHPYGCEQAVLQQIQYVKQANPIKSGPKRVLILGASSGFGLAARIALTFGGAQADTIGVSFERAPSETQTGSAGYYNNLFFKQHAEQAGRIAVNLEGDVFSVDMREQVIEAIETYFEGEVDLIIYSIASGMRRKPRSEKADPEFWRSAIKPIGEAVSGATLLLENDTWIETTLQPASEEEIEGTLRVMGGDDWENWIDTLINAESLAEGCKTIAFSYMGPDVTHPIYLDGTLGRAKIDLHQTSHALNLKLANFDGGAYAVVCKALVTKASVFIPGLSPYLLALYQVMKNKGTHEGCIEQMQRLFSDKLYGHSRIPLDSERLIRMDDWEMNPDTQVQVRERLQQMNASNFQQLGDYAGFKREFMQLNGFEFDQIDYSQSV,not soluble
2,MRKIIVGAFVSLDGIMQAPGGPHEDPVGGFDHGGWAAPYFDETMGQAVDEMFSKPFDLLLGRKTYDIFAAHWPYAGPDDPIGPLFDRITKYVATRNPDLRLDWQNSRTLGSDPVAMLKKLKSEEGPDLLTQGSTDFLQTLFSNDLVDEMYISYFPVVLGKGKRLFGHGAMPMAMKLLGSKVSGTGVTANKYVRSGPVVTGSFEFEQPTEAELERRRKLS,soluble
3,SMGGRRAVRVWCDGCYDMVHYGHSNQLRQARAMGDYLIVGVHTDEEIAKHKGPPVFTQEERYKMVQAIKWVDEVVPAAPYVTTLETLDKYNCDFCVHGNDITLTVDGRDTYEEVKQAGRYRECKRTQGVSTTDLVGRMLLVTKAHHSSQEMSSEYREYADSFGKCPGGRNPWTGVSQFLQTSQKIIQFASGKEPQPGETVIYVAGAFDLFHIGHVDFLEKVHRLAERPYIIAGLHFDQEVNHYKGKNYPIMNLHERTLSVLACRYVSEVVIGAPYAVTAELLSHFKVDLVCHGKTEIIPDRDGSDPYQEPKRRGIFRQIDSGSNLTTDLIVQRIITNRLEY,soluble
4,MNGTLDHPDQPDLDAIKMFVGQVPRTWSEKDLRELFEQYGAVYEINVLRDRSQNPPQSKGCCFVTFYTRKAALEAQNALHNMKVLPGMHHPIQMKPADSEKNNAVEDRKLFIGMISKKCTENDIRVMFSSFGQIEECRILRGPDGLSRGCAFVTFTTRAMAQTAIKAMHQAQTMEGCSSPMVVKFADTQKDKEQKRMAQQLQQQMQQISAASVWGNLAGLNTLGPQYLALLQQTASSGNLNTLSSLHPMGGLNAMQLQNLAALAAAASAAQNTPSGTNALTTSSSPLSVLTSSGSSPSSSSSNSVNPIASLGALQTLAGATAGLNVGSLAGMAALNGGLGSSGLSNGTGSTMEALTQAYSGIQQYAAAALPTLYNQNLLTQQSIGAAGSQKEGPEGANLFIYHLPQEFGDQDLLQMFMPFGNVVSAKVFIDKQTNLSKCFGFVSYDNPVSAQAAIQSMNGFQIGMKRLKVQLKRSKNDSKPY,soluble
5,SRAMPASLSTAALRSDNVSPVDPLGVQREFDHYVSVLRDRLGLQVVMLPADEELPDCVFVEDTAVVCGSTALITRPGAPSRRSETVAMKGALTELGLNIVEMNDESATMDGGDVLFTGKEFFVGLSKRTNQRGAEILANTFKDYAVSTIPVEEGLHLKSFCSMAGPNLIAIGSSDAAQKALKVIQQMSDCKYEKLTVPDDRAANCVYMNLPGKGDVLLHCTPEVFPESAKVFERLKSHMLIPVSNQEKMKVDGALTCLSVLLRI,soluble
6,MSLKRVMLKISGEALAGTNGYGIDFEVANRIAKEIKEIVDLGIEVGAVVGGGNIWRGRNGKGMDRTTADYMGMLATCINALALQDSLENMDVDTRVQTAIEMKQVAEPFIRRRAMRHLEKGRVVIFAGGTGNPYFSTDTTAALRAAEIEADVILLAKKVDGVYDKDPHKYDDAIKFDNLTYMEVLEKNLQVMDSTATSLCMDNNIPIIVFGLDVSGNIRKAVLGEKIGTIVSKEGHHHHHH,soluble
7,MGSDKIHHHHHHMYKWGWTMTSSVAQLLSTPVEEVAGKEVPVLDKDFSLAEILKAVEKAKIDRAFLTEGNSIRGVLTFRDILDKIATVRTKQAYIGGLHGSSFMNEPVKYVEVGREVSHALETMANGMFTSVPVVGAGGVVEGGITRFELARLVKDLEISQDTSVRDVMRTFLVSVNLQTRILHVRQLLYEYDISVIPVMDEGRFVGVVGLDELMAIIKSFYNLARGEPKRHTPLKYVIVADAIRMRPPVVTPDASLAEAAEKMLEKRYRAVVVVDSEKPVGFTSGLELANFLLTKKSS,not soluble
8,ADGQQGAPLNSPNTYDVTTWRIKAHPEVTAQSDIGAVINDIIADIKQRQTSPDARPGAAIIIPPGDYDLHTQVVVDVSYLTIAGFGHGFFSRSILDNSNPTGWQNLQPGASHIRVLTSPSAPQAFLVKRAGDPRLSGIVFRDFCLDGVGFTPGKNSYHNGKTGIEVASDNDSFHITGMGFVYLEHALIVRGADALRVNDNMIAECGNCVELTGAGQATIVSGNHMGAGPDGVTLLAENHEGLLVTGNNLFPRGRSLIEFTGCNRCSVTSNRLQGFYPGMLRLLNGCKENLITANHIRRTNEGYPPFIGRGNGLDDLYGVVHIAGDNNLISDNLFAYNVPPANIAPAGAQPTQILIAGGDANVVALNHVVSDVASQHVVLDASTTHSKVLDSGTASQITSYSSDTAIRPTP,soluble
9,MGSDKIHHHHHHMGNKPSGRHYFAEGITNRGYISLLPNMMSEWERTYVLMGGPGTGKSTTIKMIGLDLLDRGYEVDFLRSARDPDSMAGVLIRRFNWAILDHYEIAPLHWRAPGVIEHFVDFSKYCNQGKLEQQRLRVLELGEKIKRGQQRIGEILAEEFGGRIRERFYAKADEGRPWLPKLYASDLFKEAKGPWSKAQDALKKIQKSAVQSFFLHGINPEGWLNLAPYFLTDYDQIRFDGEEAHEAMEWVLQEAEQLGQVIDIVLHPLYPDEILGIVFPERNLAIWQGDPEHLEDQGLGCPFSNDLKKALLDTQRLRDKLKAIYTKTVDFDQVDSMKTDLLSSILRDMDKKVHTID,not soluble
10,MGSDKIHHHHHHMINHHPKFELIQAFVNGDLPASLSAGIAIHADMCPVCQQTIAQFTEQVAENSFEEEYLDRFIIDDNEALEAIATIDFDHMIDNIVESSDIAVVVPKVEKTVSFNDTTYTLPAALNSMEMGKHAQIGKLTRARIQLNENEIHSSLLHIQPGGGVPEHTHKGFELTVLLAGSFHDESGEYVKGDFIMLDSSHQHHPISSNGCLCYTVANDALHFTHGINKLLNPIGSFIY,not soluble
11,MVKSVLCFGDSLTWGSNAETGGRHSHDDLWPSVLQKALGSDVHVIHEGLGGRTTAYDDHTGDCDRNGARLLPTLLHSHAPLDMVIIMLGTNDMKPAIHGSAIVAMKGVERLVKLTRNHVWQVSDWEAPDVLIVAPPQLCETANPFMGAIFRDAIDESAMLASVYRDLADELDCGFFDAGSVARTTPVDGVHLDAENTRAIGRGLEPVVRMMLGL,soluble
12,MSLKILLKQAMVYPITSQKFQGDVLVIGEKIAEVKPFIQPTQDMTVIDARALHLLPGFIDVHTHLGLYDEGTGWAGNDANETSEVSTPHIRSLDGIHPLDIAFQDAVQNGITTVHVMPGSQNIIGGTTCVIKTAGTCIDHMIIQEPAGLKIAFGENPKKVHSNGTKESITRMGIMGLLRESFYEAQHYGHEADFRMLPILKALRREIPVRIHAHRADDISSALRFATEFNLDLRIEHCTEGHFIVEELSKHNLKVSVGPTLTRRSKIELKNKTWDTYHILSKSGVEVSITTDHPYTPIQYLNLCAAVAVREGLDEKTALEGITIFPARNLRLEDRIGSIEVGKDADLVLWTHHPFHYLAKPVLTMIDGKIIYKKNKKNEGHHHHHH,not soluble
13,MWYTGTGDKGKTKVPSVGEVWKDSEIVKALGDLDELNSVLGVVSSLYPELSEVIQKLQNDIFSISSEIAGFDMNFSDEKVKGIEELITNYSKELEPLRNFVLPGGHIASSFLHLARAVCRRAERSVVTLLKESKAKEVHAKYLNRLSSLLFVLALVVNKRTNNPNVIWRGKD,soluble
14,MSFSKLLDLLTGREAQRTAIDWDAKYGTDTRSTVELHGLTISHDSRRFGERYQASDPSALSDALAFVGLDPRSYRFVDLGCGKGRMLIVAAELGFKSCIGVEFADELAQTAKANAAAAGFDTISVVHGDAGAYAFQDEPFVLYLFNPFSHQIMQRVRDNLLKLRRAEYYVIYKNPRERRIFDEMQTLRYLGTPPAHKGVWGVHVWGPRGELEHHHHHH,not soluble
15,MGSDKIHHHHHHMNILAPVSSVKEAEQLIAHGADELYCGIGLGALKNRPGNTDREIWINRRESGNANIPDLESLSLLVDHAHAQGKKVYLTLNQPGYAQDLYGEILAFVREVKKSCQVDAFIVADPGLIRMLIGKEPDMVIHVSSLAGVLNSSAVLFFKKLGVKRIVFPRYLEAETLKKIMDRAGEDLEYEVFILNDGCMFEESHCHVSHQFGGAFCHNPAWRYKLIPPEEGGILETWKLRNLKIAGETFEGNVEEWKRWQWLGIKNGGGYIGAKYPLGMCGLCTLPEYRDMGITSLKIVGREAPLSKKIKSVQLLKKVLDYQREEHLPDEVRDYARRTKGARLLCGSGYMCYER,not soluble
16,TKDFTWDLSYNITWNHNEITKLTGGDDSDYYVEAGDKISRGNNTKVQAHKVGYAANSFYVYQQVYDENGKPIENMFVDRNGNGTIDSGDKYIYKKPAGDVLMGLTSKMQYKNFDFSFSLRASLNNYVYYDFLSNKANVSTSGLFSNNAYSNTSAEAVALGLSGQGDYMSDYFIHNASFLRCDNITLGYSFQNLWKTQTYKGVGGRVYATVQNPFIISKYKGLDPEVKSGIDANPYPRAMTFLLGLSLQF,not soluble
17,VPKVTFTVEKGSNEKHLAVLVKYEGDTMAEVELREHGSDEWVAMTKGEGGVWTFDSEEPLQGPFNFRFLTEKGMKNVFDDVVPEKYTIGATYAPEE,soluble
18,MAHHHHHHMIYGKDGKYPVGEILEYNNYNLSGQSLVEKKEREKLSIDYYEDLRKAAECHRQVRKHMQAFIKPGKKMIDIAQETERKTKELILAEKLKCGWGFPTGCSLNHCAAHYTPNYGDETVLKYDDVCKLDFGVHVNGYIIDCAFTIAFNEKYDNLIKATQDGTNTGIKEAGIDARMCDIGEAIQEAIESYEIELNQKIYPIKAISNLRGHSINKYIIHGGKCVPIVRQKEKNEIMEEGELFAIETFASTGKGYVNHENECSHYMRNPEKQFVPIRLNSAKTLLKVINDNFDTLPFCNRWLDDLGQTRHFMALKTLIDLNIVEPYPPLCDIKNSFTSQMEHTILLRPTCKEVLSRGPDF,soluble
19,MSGQSLTDRITAAQHSVTGSAVSKTVCKATTHEIMGPKKKHLDYLIQCTNEMNVNIPQLADSLFERTTNSSWVVVFKSLITTHHLMVYGNERFIQYLASRNTLFNLSNFLDKSGLQGYDMSTFIRRYSRYLNEKAVSYRQVAFDFTKVKRGADGVMRTMNTEKLLKTVPIIQNQMDALLDFNVNSNELTNGVINAAFMLLFKDAIRLFAAYNEGIINLLEKYFDMKKNQCKEGLDIYKKFLTRMTRISEFLKVAEQVGIDRGDIPDLSQAPSSLLDALEQHLASLEGKK,soluble
20,MTRQFLEFEQPIEELNQKIEALRMVGSDNEVNLSEEIARLEAKCSELTENIFSRLEPWQIAQMARHPLRPQTTDYIERIFTDFQELHGDRSYSSAPAIIGGMARLNGEPVMVLGHQKGKRTKEKVYRNFGMARPEEYRKALRLMRMAEKFKMPVVTFIDTAGAYPGIGAEERNQSEAIARNLFAMSRIKTPIVCIVTGEAGSGGALAIGVGDKIIMLQFSIYSVISPEGCASILWKDASKASEAARAMGITADRIFENELVDMVVPEPLGGAHRDVDEMASRLKRLLTSELQALKKVPLDQLIELRYQKFMAMGACD,not soluble
